“And” between values parts separate entries of the source, which are not always exact repeats. Equal values may be shown once.
Experiments:
Format in all cases: biochemical
[1] = test system: substrate SEISY↓EVEFRWKK [SEQ ID NO:9] or GLTNIKTEEISEISY↓EVEFRWKK [SEQ ID NO:10]; assay: BACE activity assay: HPLC with fluorescence detection of peptide substrate cleavage; details: for Activity %: relative to recombinant BACE expressed in CHO cells (=100), E. coli enzymes refolded as in Example 4 and purified
Method: (§1) Peptide substrates SEISY↓EVEFRWKK [SEQ ID NO: 9] and GLTNIKTEEISEISY↓EVEFRWKK [SEQ ID NO: 10] were synthesized by solid-phase technology (arrows indicating cleavage site). The assay mixture contained in a volume of 200 μl, 0.1 M Sodium acetate, pH 5.0, 0.5-20 nM BACE and 25 μM substrate SEISY↓EVEFRWKK [SEQ ID NO:9] or GLTNIKTEEISEISY↓EVEFRWKK [SEQ ID NO:10]. The reaction mixture was incubated for 2 hours at 37° C.; reactions were stopped with 100 μl of 4% TFA in H2O. A 50 μl portion was injected into an Agilent 1100 Series HPLC equipped with an Alltech Rocket™ column (7 mm i.d.×53 mm length, C18, 3 μm) pre-equilibrated with 88% reagent A (0.1% TFA in water), 12% reagent B (0.1% TFA in acetonitrile). The flow rate over this column was 3 ml per minute. The products (including uncleaved substrate) were eluted from the column with the following linear gradients:
(§2) The Agilent 1100 Series HPLC is equipped with a fluorescence detector that allows detection of the substrate disappearance and EVEFRWKK [SEQ ID NO:29] product formation. Activity was expressed as Fluorescence peak area generated by the liberation of a fluorescent (Tryptophan fluorescence) product upon cleavage of substrate. Fluorescence detection is monitored at 348 nM upon excitation at 280 nm.

[2] = test system: GLTNIKTEEISEISY-↓-EVEFRWKK [SEQ ID NO: 10]; assay: Kinetic comparison of CHO and E. coli BACE (Vmax, kcat, Km); details: substrate SEQ ID NO: 10, 1 to 300 μM; pH 5.5, 50 mM NaCl, 37° C., 1 h, enzyme 1 nM
[3] = test system: SEISY-↓-EVEFRWKK [SEQ ID NO: 9]; assay: as above; details: substrate SEQ ID NO: 9, 1 to 300 μM; pH 5.5, 50 mM NaCl, 37° C., 1 h, enzyme 1 nM
[4] = molecular target: T1, EIDL-↓-MVLDWHDR [SEQ ID NO: 13] (Homo sapiens, UniProt P56817); assay: as above; details: substrate SEQ ID NO: 13, 1 to 300 μM; pH 5.5, 50 mM NaCl, 37° C., 1 h, enzyme 1 nM
T1 construct: made in house; host or cells: CHO cells, purified from conditioned media

[5] = molecular target: T2, substrate SEISY↓EVEFRWKK [SEQ ID NO:9] or GLTNIKTEEISEISY↓EVEFRWKK [SEQ ID NO:10] (Homo sapiens, UniProt P56817); assay: BACE activity assay: HPLC with fluorescence detection of peptide substrate cleavage; details: relative to CHO BACE, Example 5 optimized refolding method
T2 construct: made in house; control enzyme from CHO cells
Method: as §1, §2

| Molecule | Activity % [1] [%] | Km [2] [µM] | Vmax [2] [µmol/min/mg] | kcat [2] [s⁻¹] | Km [3] [µM] | Vmax [3] [µmol/min/mg] | kcat [3] [s⁻¹] | further results |
| --- | --- | --- | --- | --- | --- | --- | --- | --- |
| pET11a-BACE + HIV Pr: V40 to S432 BACE fragment, SEQ ID NO:31, obtained by HIV-1 protease treatment of pET11a-BACE (protein, listed as Homo sapiens, BACE V40- S432 fragment) VEMVDNLRGKSGQGYYVEMTVGSPPQTLNILVDTGSSNFAVGAAPHPFLHRYYQRQLSSTYRDLRKGVYVPYTQGKWEGELGTDLVSIPHGPNVTVRANIAAITESDKFFINGSNWEGILGLAYAEIARPDDSLEPFFDSLVKQTHVPNLFSLQLCGAGFPLNQSEVLASVGGSMIIGGIDHSLYTGSLWYTPIRREWYYEVIIVRVEINGQDLKMDCKEYNYDKSIVDSGTTNLRLPKKVFEAAVKSIKAASSTEKFPDGFWLGEQLVCWQAGTTPWNIFPVISLYLMGEVTNQSFRITILPQQYLRPVEDVATSQDDCYKFAISQSSTGTVMGAVIMEGFYVVFDRARKRIGFAVSACHVHDEFRTAAVEGPFVTLDMEDCGYNIPQTDES | 248 | – | – | – | – | – | – | increase in enzyme activity after HIV-1 protease treatment versus untreated enzyme ([1]; HIV-1 protease cleavage at F39-V40, then purification): about 5 fold; Activity % ([1]; listed as V^40 . . . S^432): 248% and 222% |
| pQE80L-BACE + HIV Pr: V40 to S432 BACE fragment, SEQ ID NO:31, obtained by HIV-1 protease treatment of pQE80L-BACE (protein, listed as Homo sapiens, BACE V40- S432 fragment) VEMVDNLRGKSGQGYYVEMTVGSPPQTLNILVDTGSSNFAVGAAPHPFLHRYYQRQLSSTYRDLRKGVYVPYTQGKWEGELGTDLVSIPHGPNVTVRANIAAITESDKFFINGSNWEGILGLAYAEIARPDDSLEPFFDSLVKQTHVPNLFSLQLCGAGFPLNQSEVLASVGGSMIIGGIDHSLYTGSLWYTPIRREWYYEVIIVRVEINGQDLKMDCKEYNYDKSIVDSGTTNLRLPKKVFEAAVKSIKAASSTEKFPDGFWLGEQLVCWQAGTTPWNIFPVISLYLMGEVTNQSFRITILPQQYLRPVEDVATSQDDCYKFAISQSSTGTVMGAVIMEGFYVVFDRARKRIGFAVSACHVHDEFRTAAVEGPFVTLDMEDCGYNIPQTDES | 222 | – | – | – | – | – | – | – |
| PcDNA3.1Asp2LΔTM(His)6 + HIV Pr: CHO-expressed BACE cleaved with HIV-1 protease, SEQ ID NO:32 (protein, listed as Homo sapiens, His6 tag; HIV Protease treated BACE Asp2-2L-TM-His6) VEMVDNLRGKSGQGYYVEMTVGSPPQTLNILVDTGSSNFAVGAAPHPFLHRYYQRQLSSTYRDLRKGVYVPYTQGKWEGELGTDLVSIPHGPNVTVRANIAAITESDKFFINGSNWEGILGLAYAEIARPDDSLEPFFDSLVKQTHVPNLFSLQLCGAGFPLNQSEVLASVGGSMIIGGIDHSLYTGSLWYTPIRREWYYEVIIVRVEINGQDLKMDCKEYNYDKSIVDSGTTNLRLPKKVFEAAVKSIKAASSTEKFPDGFWLGEQLVCWQAGTTPWNIFPVISLYLMGEVTNQSFRITILPQQYLRPVEDVATSQDDCYKFAISQSSTGTVMGAVIMEGFYVVFDRARKRIGFAVSACHVHDEFRTAAVEGPFVTLDMEDCGYNIPQTDESHHHHHH | 120 | – | – | – | – | – | – | more enzymatic activity than untreated BACE ([1]; BACE expressed in CHO cells, HIV-1 protease treated and purified): 10-20% |
| PcDNA3.1Asp2LΔTM(His)6: Recombinant human BACE lacking transmembrane domain, His6 tag, expressed in CHO cells (control), SEQ ID NO:23 (protein, listed as Homo sapiens, His6 tag; Human soluble BACE with 6-His tag) MAQALPWLLLWMGAGVLPAHGTQHGIRLPLRSGLGGAPLGLRLPRETDEEPEEPGRRGSFVEMVDNLRGKSGQGYYVEMTVGSPPQTLNILVDTGSSNFAVGAAPHPFLHRYYQRQLSSTYRDLRKGVYVPYTQGKWEGELGTDLVSIPHGPNVTVRANIAAITESDKFFINGSNWEGILGLAYAEIARPDDSLEPFFDSLVKQTHVPNLFSLQLCGAGFPLNQSEVLASVGGSMIIGGIDHSLYTGSLWYTPIRREWYYEVIIVRVEINGQDLKMDCKEYNYDKSIVDSGTTNLRLPKKVFEAAVKSIKAASSTEKFPDGFWLGEQLVCWQAGTTPWNIFPVISLYLMGEVTNQSFRITILPQQYLRPVEDVATSQDDCYKFAISQSSTGTVMGAVIMEGFYVVFDRARKRIGFAVSACHVHDEFRTAAVEGPFVTLDMEDCGYNIPQTDESHHHHHH | 100 | 4.9 | 0.435 | 0.345 | 52 | 0.294 | 0.233 | Km [4]: 12 µM; Vmax [4]: 0.0196 µmol/min/mg; kcat [4]: 0.0155 s⁻¹ |
| pET11a-BACE: T7 tag-GSM-BACE (A-8 to S432), SEQ ID NO:5, expressed in E. coli and refolded (protein, listed as Homo sapiens, T7 tag) MASMTGGQQMGRGSMAGVLPAHGTQHGIRLPLRSGLGGAPLGLRLPRETDEEPEEPGRRGSFVEMVDNLRGKSGQGYYVEMTVGSPPQTLNILVDTGSSNFAVGAAPHPFLHRYYQRQLSSTYRDLRKGVYVPYTQGKWEGELGTDLVSIPHGPNVTVRANIAAITESDKFFINGSNWEGILGLAYAEIARPDDSLEPFFDSLVKQTHVPNLFSLQLCGAGFPLNQSEVLASVGGSMIIGGIDHSLYTGSLWYTPIRREWYYEVIIVRVEINGQDLKMDCKEYNYDKSIVDSGTTNLRLPKKVFEAAVKSIKAASSTEKFPDGFWLGEQLVCWQAGTTPWNIFPVISLYLMGEVTNQSFRITILPQQYLRPVEDVATSQDDCYKFAISQSSTGTVMGAVIMEGFYVVFDRARKRIGFAVSACHVHDEFRTAAVEGPFVTLDMEDCGYNIPQTDES | 47 | – | – | – | – | – | – | Activity % ([1]; listed as pET11a BACE): about 47%; Activity % ([1]; listed as recombinant BACE): 28% |
| pQE70-BACE: (M)R36 to S432 BACE-RS(His)6 lacking prosequence, SEQ ID NO:3, expressed in E. coli and refolded (protein, listed as Homo sapiens, His6 tag) MRGSFVEMVDNLRGKSGQGYYVEMTVGSPPQTLNILVDTGSSNFAVGAAPHPFLHRYYQRQLSSTYRDLRKGVYVPYTQGKWEGELGTDLVSIPHGPNVTVRANIAAITESDKFFINGSNWEGILGLAYAEIARPDDSLEPFFDSLVKQTHVPNLFSLQLCGAGFPLNQSEVLASVGGSMIIGGIDHSLYTGSLWYTPIRREWYYEVIIVRVEINGQDLKMDCKEYNYDKSIVDSGTTNLRLPKKVFEAAVKSIKAASSTEKFPDGFWLGEQLVCWQAGTTPWNIFPVISLYLMGEVTNQSFRITILPQQYLRPVEDVATSQDDCYKFAISQSSTGTVMGAVIMEGFYVVFDRARKRIGFAVSACHVHDEFRTAAVEGPFVTLDMEDCGYNIPQTDESRSHHHHHH | – | 5.4 | 0.400 | 0.317 | 55.5 | 0.345 | 0.273 | Activity % ([5]; first elution from affinity column): 171%; Activity % ([5]; second elution from affinity column): 125% |
